Data on 6 molecules can be found in US20240158510A1 (GOVERNING COUNCIL OF THE UNIVERSITY OF TORONTO, published 2024).

In experiment [1] the target is T1, recombinant mouse integrin-αvβ1 (mouse, UniProt P43406 31-988; P09055 21-728, limits assumed).
T1 construct: also called Recombinant Mouse Integrins
In words: IgG titration on recombinant mouse integrin αvβ1, one site-total fit; assay format not stated.

For experiment [2], the target named is T2, integrin αvβ6 expressed on CHO cells (UniProt P06756 31-1048; P18564 22-788, limits assumed).
T2 construct: whole, on cells
Put plainly: flow cytometry titration on AvB6 CHO cells. The method, then:
(§1) Adherent cells were brought into suspension using PBS supplemented with 10 mM ethylenediaminetetraacetic acid (EDTA). The cells were washed with PBS, resuspended in PBS supplemented with 1% BSA, and incubated for 15 minutes at 4° C. The cells were labelled with 50 μl of Fab-phage culture supernatant, or 500 nM Fab, or IgG for 30 minutes at 4° C., then washed with PBS and resuspended in PBS supplemented with 1% BSA. Next, the cells were labelled with anti-Fab (for Fab-phage), or anti-Flag (for Fabs) or anti-Fc (for IgGs) conjugated Alexa-488 secondary Ab according to manufacturer's instructions. Data were collected using a CytoFLEX-S flow-cytometer using a 488-nm laser with 530/25 nm filter settings. The cells were analyzed in PBS, and all acquired live events were greater than 10,000 cells per sample. Quantitation analysis was carried out using FlowJo v10.2 Software. For Ab cellular titration analysis, the Abs were added to antigen positive cells in duplicate samples from a range of 500 pM to 1 μM. The mean fluorescence signal values were subtracted from the control antigen negative cells signals, and EC50 determined using Graph-pad Prism, where x is the Fab concentration: […]

Experiment [3] has as its target T3, integrin αvβ1 expressed on CHO cells (UniProt P06756 31-1048; P05556 21-798, limits assumed). In words: cell-based or functional assay.
Experiment [4] concerns the target T4, integrin αvβ5 expressed on CHO cells (UniProt P06756 31-1048; P18084 24-799, limits assumed). Put plainly: cell-based or functional assay.
Experiment [5] addresses T5, integrin αvβ3 expressed on CHO cells (UniProt P06756 31-1048; P05106 27-788, limits assumed). Put plainly: cell-based or functional assay.
Experiment [6] concerns the target T2, integrin αvβ6 expressed on CHO cells. In words: cell-based or functional assay.
In experiment [7] the target is T3, integrin αvβ1 expressed on CHO cells. Put plainly: cell-based or functional assay. This is another data set of the same source.
The target of experiment [8] is T6, integrin αvβ8 expressed on CHO cells (UniProt P06756 31-1048; P26012 43-769, limits assumed). Put plainly: cell-based or functional assay.
Experiment [9] addresses T3, integrin αvβ1 expressed on CHO cells. In words: flow cytometry titration on AvB1 CHO cells. The method, then: as §1
Experiment [10] concerns the target T6, integrin αvβ8 expressed on CHO cells. Put plainly: flow cytometry titration on AvB8 CHO cells. The method, then: as §1
(A flow cytometer gives signals particle by particle.)

Experiment [11] has as its target T4, integrin αvβ5 expressed on CHO cells. Put plainly: flow cytometry titration on AvB5 CHO cells. The method, then:
as §1

The target of experiment [12] is T7, recombinant human integrin-αvβ1 (human, UniProt P06756 31-992; P05556 21-728, limits assumed).
T7 construct: also called Recombinant Human Integrins
Put plainly: IgG titration on recombinant human integrin αvβ1, one site-total fit; assay format not stated. Further details: Bmax: unit not given here.

For experiment [13], the target named is T5, integrin αvβ3 expressed on CHO cells. In words: cell-based or functional assay. The source holds these as a separate data set.
In experiment [14] the target is T3, integrin αvβ1 expressed on CHO cells. Put plainly: cell-based or functional assay. The source holds these as a separate data set.
In experiment [15] the target is T5, integrin αvβ3 expressed on CHO cells. Put plainly: flow cytometry titration on AvB3 CHO cells. How it is done:
as §1

For experiment [16], the target named is T4, integrin αvβ5 expressed on CHO cells. In words: flow cytometry titration on integrin-expressing CHO cells. How it is done:
as §1

Experiment [17] has as its target T5, integrin αvβ3 expressed on CHO cells. Described as above. The method, then: as §1
Experiment [18] addresses T2, integrin αvβ6 expressed on CHO cells. The experiment is described as above. How it is done: as §1
Experiment [19] concerns the target T3, integrin αvβ1 expressed on CHO cells. The description is as above. How it is done:
as §1

Experiment [20] deals with T6, integrin αvβ8 expressed on CHO cells. The description is as above. How it is done: as §1

Changes are numbered by the printed parent chain. Like-named read-outs stand apart in the source and are kept apart here.

T5 sequence (P06756 31-1048 limits assumed, chain 1 of 2): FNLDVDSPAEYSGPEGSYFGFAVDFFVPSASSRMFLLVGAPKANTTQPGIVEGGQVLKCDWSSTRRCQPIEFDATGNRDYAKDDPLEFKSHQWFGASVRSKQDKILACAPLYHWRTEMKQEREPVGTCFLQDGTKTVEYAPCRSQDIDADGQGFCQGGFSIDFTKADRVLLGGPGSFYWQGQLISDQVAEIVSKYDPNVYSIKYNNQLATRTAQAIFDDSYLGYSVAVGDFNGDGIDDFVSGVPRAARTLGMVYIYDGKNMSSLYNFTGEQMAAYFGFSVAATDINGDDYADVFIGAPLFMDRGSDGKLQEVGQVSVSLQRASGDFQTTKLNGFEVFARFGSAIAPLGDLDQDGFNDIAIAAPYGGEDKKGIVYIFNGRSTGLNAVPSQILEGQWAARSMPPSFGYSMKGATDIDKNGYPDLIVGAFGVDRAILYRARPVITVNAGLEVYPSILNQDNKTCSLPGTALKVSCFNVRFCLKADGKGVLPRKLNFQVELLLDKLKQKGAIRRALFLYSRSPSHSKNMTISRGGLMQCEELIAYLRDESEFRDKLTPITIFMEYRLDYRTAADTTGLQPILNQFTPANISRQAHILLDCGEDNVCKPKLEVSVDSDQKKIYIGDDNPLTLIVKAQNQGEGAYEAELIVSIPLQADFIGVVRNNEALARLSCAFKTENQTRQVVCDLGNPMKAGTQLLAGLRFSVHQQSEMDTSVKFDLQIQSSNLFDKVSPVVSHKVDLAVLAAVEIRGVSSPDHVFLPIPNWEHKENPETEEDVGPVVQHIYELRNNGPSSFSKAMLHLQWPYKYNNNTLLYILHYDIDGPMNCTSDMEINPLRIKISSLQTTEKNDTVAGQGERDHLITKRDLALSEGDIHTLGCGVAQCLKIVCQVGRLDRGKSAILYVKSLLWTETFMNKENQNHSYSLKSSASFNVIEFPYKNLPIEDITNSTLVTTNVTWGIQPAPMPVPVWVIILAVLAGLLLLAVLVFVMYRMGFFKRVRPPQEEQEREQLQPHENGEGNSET
T5 sequence (P05106 27-788 limits assumed, chain 2 of 2): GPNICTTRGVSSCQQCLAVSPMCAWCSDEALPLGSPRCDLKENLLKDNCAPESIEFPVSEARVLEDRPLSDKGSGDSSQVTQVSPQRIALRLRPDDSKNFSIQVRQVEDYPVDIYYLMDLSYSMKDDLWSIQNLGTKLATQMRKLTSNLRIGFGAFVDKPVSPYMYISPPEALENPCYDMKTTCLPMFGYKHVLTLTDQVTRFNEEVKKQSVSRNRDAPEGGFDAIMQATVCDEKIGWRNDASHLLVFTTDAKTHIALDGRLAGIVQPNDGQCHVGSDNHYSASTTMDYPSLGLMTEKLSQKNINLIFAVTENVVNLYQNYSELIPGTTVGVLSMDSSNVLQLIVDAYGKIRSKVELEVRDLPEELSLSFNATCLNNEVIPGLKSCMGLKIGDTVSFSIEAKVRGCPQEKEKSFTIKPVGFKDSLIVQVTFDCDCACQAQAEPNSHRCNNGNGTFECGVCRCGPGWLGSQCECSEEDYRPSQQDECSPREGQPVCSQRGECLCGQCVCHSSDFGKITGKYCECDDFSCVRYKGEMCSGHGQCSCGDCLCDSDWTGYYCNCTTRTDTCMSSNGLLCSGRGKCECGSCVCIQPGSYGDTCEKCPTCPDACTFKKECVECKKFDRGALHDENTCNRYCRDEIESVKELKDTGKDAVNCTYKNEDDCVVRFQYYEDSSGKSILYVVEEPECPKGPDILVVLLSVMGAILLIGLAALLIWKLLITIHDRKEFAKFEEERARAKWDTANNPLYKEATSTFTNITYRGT
T6 sequence (P06756 31-1048 limits assumed, chain 1 of 2): as the sequence (P06756 31-1048 limits assumed, chain 1 of 2) above
T6 sequence (P26012 43-769 limits assumed, chain 2 of 2): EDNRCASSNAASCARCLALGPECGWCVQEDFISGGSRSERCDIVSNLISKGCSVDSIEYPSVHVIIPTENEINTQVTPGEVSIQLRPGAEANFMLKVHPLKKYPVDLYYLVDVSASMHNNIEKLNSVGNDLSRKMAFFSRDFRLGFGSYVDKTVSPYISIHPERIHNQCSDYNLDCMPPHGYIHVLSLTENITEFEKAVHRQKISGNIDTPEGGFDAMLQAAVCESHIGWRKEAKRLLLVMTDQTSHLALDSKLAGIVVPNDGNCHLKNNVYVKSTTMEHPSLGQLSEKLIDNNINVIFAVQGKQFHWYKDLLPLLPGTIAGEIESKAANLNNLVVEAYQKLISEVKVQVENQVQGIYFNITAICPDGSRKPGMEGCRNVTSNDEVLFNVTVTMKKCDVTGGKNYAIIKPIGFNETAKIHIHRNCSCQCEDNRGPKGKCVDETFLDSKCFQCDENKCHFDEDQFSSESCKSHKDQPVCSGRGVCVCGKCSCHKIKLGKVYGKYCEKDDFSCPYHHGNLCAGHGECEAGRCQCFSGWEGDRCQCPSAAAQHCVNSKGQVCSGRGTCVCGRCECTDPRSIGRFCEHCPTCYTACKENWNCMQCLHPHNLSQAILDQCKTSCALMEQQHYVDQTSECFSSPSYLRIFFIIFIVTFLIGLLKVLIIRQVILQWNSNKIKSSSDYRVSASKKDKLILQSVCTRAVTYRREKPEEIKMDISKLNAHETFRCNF
T3 sequence (P06756 31-1048 limits assumed, chain 1 of 2): as the sequence (P06756 31-1048 limits assumed, chain 1 of 2) above
T3 sequence (P05556 21-798 limits assumed, chain 2 of 2): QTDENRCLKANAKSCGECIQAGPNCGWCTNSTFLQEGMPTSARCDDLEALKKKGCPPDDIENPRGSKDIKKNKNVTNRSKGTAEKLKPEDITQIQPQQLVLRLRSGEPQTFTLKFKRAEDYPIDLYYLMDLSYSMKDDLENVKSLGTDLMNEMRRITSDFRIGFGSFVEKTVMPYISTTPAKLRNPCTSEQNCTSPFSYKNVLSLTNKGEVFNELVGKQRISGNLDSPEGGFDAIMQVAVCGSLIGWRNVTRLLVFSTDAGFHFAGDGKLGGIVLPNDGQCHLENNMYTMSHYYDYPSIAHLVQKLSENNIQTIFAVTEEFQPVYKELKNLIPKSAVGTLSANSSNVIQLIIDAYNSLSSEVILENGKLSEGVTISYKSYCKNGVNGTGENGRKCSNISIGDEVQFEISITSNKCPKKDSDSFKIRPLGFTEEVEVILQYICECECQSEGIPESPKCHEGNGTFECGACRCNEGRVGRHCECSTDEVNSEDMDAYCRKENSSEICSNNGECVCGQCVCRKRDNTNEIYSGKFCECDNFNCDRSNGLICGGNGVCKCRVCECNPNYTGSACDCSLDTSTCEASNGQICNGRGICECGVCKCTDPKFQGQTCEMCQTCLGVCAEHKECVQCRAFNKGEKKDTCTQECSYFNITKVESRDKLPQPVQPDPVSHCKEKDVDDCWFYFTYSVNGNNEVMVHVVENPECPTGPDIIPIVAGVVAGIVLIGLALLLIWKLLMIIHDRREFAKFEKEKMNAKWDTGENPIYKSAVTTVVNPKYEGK
T2 sequence (P06756 31-1048 limits assumed, chain 1 of 2): as the sequence (P06756 31-1048 limits assumed, chain 1 of 2) above
T2 sequence (P18564 22-788 limits assumed, chain 2 of 2): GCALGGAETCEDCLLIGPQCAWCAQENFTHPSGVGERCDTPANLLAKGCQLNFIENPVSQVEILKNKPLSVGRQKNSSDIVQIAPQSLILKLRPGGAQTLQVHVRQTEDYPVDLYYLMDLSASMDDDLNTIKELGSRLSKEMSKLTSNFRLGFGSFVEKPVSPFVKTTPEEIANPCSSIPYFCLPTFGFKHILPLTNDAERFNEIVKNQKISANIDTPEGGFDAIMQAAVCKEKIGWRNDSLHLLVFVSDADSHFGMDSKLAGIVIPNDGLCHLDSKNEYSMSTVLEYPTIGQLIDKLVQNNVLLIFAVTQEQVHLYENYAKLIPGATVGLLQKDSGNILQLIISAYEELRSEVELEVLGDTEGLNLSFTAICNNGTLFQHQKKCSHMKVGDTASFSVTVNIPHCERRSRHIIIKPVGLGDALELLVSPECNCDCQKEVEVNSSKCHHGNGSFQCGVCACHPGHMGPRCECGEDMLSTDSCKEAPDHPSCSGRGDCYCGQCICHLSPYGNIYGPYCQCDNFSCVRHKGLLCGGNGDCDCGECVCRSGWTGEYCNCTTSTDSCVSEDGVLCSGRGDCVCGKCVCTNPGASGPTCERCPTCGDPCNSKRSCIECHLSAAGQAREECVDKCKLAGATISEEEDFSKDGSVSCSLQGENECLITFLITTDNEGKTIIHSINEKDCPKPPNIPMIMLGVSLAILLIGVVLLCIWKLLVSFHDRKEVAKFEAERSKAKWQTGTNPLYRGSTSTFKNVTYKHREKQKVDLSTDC
T4 sequence (P06756 31-1048 limits assumed, chain 1 of 2): as the sequence (P06756 31-1048 limits assumed, chain 1 of 2) above
T4 sequence (P18084 24-799 limits assumed, chain 2 of 2): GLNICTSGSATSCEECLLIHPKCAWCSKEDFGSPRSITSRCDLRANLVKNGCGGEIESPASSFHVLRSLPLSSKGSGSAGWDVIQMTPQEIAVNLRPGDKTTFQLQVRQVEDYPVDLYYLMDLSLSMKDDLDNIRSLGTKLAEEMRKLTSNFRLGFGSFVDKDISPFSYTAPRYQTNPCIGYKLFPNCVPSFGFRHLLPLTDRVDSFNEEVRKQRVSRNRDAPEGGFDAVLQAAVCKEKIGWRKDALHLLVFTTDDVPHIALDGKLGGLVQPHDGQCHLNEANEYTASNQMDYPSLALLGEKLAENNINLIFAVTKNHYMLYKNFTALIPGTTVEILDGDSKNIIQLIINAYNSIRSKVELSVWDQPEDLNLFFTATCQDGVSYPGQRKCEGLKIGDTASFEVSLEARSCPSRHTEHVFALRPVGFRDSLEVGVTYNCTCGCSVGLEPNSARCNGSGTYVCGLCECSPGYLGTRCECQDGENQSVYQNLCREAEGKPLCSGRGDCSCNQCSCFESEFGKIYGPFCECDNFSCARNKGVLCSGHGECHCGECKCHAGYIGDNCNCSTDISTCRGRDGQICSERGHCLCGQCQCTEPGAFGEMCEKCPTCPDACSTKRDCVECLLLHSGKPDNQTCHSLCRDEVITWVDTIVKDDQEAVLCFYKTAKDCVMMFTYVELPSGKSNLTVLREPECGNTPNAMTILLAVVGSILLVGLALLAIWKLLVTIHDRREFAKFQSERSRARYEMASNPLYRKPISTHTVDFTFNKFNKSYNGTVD

B1: IgG clone 10392, hG1/hk (pSCSTa-hG1 (10392) heavy chain, pSCSTa-hK (10392) light chain) (antibody, V domains shown)
VH: EVQLVESGGGLVQPGGSLRLSCAASGFNIYYSSIHWVRQAPGKGLEWVASISSSSGSTSTYADSVKGRFTISADTSKNTAYLQMNSLRAEDTAVYYCARSYYGGGYPYALDYWGQGTLVTVSS
VL: DIQMTQSPSSLSASVGDRVTITCRASQSVSSAVAWYQQKPGKAPKLLIYSASSLYSGVPSRFSGSRSGTDFTLTISSLQPEDFATYYCQQYFGGLITFGQGTKVEIKR
notes: Full-length human IgG1/kappa made in Expi293 cells
As a reminder, the Kd is the concentration at which binding is half-saturated. What is called EC50 is the concentration at which the effect is half-maximal. Consider B1, for which the Bmax in [1] and in experiment [12] was 0.412 throughout. In addition, the Kd in [1] and in experiment [12] was 0.421 nM in each case. The EC50 is 3.7 nM in [2]; 3 nM in [9]; 11.6 nM in [10]; 1.3 nM in experiment [11]; 9.9 nM in experiment [15]; 3.4 nM in experiment [16]. In addition, the EC50 was determined as 14.8 nM in [17], 3.26 nM in [18], 2.72 nM in experiment [19] and 11.4 nM in experiment [20]. In addition, in experiment [3], the “adhesion of integrin-αvβ1 CHO cells to LAP-TGFβ, normalised confluence, number over the bar, untreated = 100” value is 61.2%. For the same molecule, the “IC50, inhibition of CHO cell adhesion to LAP-TGFβ” value (shortened to “IC50, inhibition”) was 0.7 nM in [4]; 1.2 nM in experiment [5]; 1.4 nM in [6]; 5 nM in [7]; 1.3 nM in experiment [8]; 45 nM in experiment [13]. Moreover, the “IC50, inhibition” value in experiment [14] is under 1 nM.

B2: 10392 hG4/hk (antibody, human IgG4, V domains shown)
VH: B1 VH
VL: B1 VL
notes: not shown: human IgG4 constant region ('hG4')
Turning to B2, the Bmax in experiment [1] and in experiment [12] was 0.85 throughout. Moreover, the Kd in experiment [1] and in [12] was 0.842 nM in each case.

B3: 10392 hG1 LALA PG/hk (antibody, human IgG1, V domains shown)
VH: B1 VH
VL: B1 VL
notes: not shown: human IgG1 constant region with 'LALA PG' changes
Take B3: in experiment [1], the Bmax was found to be 0.555 and the equilibrium dissociation constant (Kd) amounted to 0.411 nM. Moreover, in [12], the Bmax was found to be 0.555 and the Kd amounted to 0.411 nM.

B4: 10404 hG1 LALA PG/hk (antibody, V domains shown)
VH: EVQLVESGGGLVQPGGSLRLSCAASGFNLYSSSIHWVRQAPGKGLEWVAYIYPSYGYTSTYADSVKGRFTISADTSKNTAYLQMNSLRAEDTAVYYCARPAPYYSWYPAMDYWGQGTLVTVSS
VL: B1 VL with Y91A, F92S, G94S, L95P, I96F
notes: as for B3
On to B4, for which, in [1], the Bmax was determined as 1.09 and the Kd is 0.244 nM. In addition, in experiment [12], the Bmax stood at 1.09 and the Kd was 0.244 nM.

B5: 10404 hG4/hk (antibody, V domains shown)
VH: B4 VH
VL: B1 VL with Y91A, F92S, G94S, L95P, I96F
notes: the IgG4 constant region used is not specified; not shown: human IgG4 constant region ('hG4')
In the case of B5, in [1], the Bmax stood at 0.782 and the dissociation constant (Kd) is 0.358 nM. Further, in [12], the Bmax was 0.782 and the Kd was determined as 0.358 nM.

B6: Bi-IgG 11867/10392 (bispecific antibody)
heavy chain 10392, knob: EVQLVESGGGLVQPGGSLRLSCAASGFNIYYSSIHWVRQAPGKGLEWVASISSSSGSTSYADSVKGRFTISADTSKNTAYLQMNSLRAEDTAVYYCARSYYGGGYPYALDYWGQGTLVTVSSASTKGPSVFPLAPSSKSTSGGTAALGCLVKDYFPEPVTVSWNSGALTSGVHTFPAVLQSSGLYSLSSVVTVPSSSLGTQTYICNVNHKPSNTKVDKKVEPKSCDKTHTCPPCPAPELLGGPSVFLFPPKPKDTLMISRTPEVTCVVVDVSHEDPEVKFNWYVDGVEVHNAKTKPREEQYNSTYRVVSVLTVLHQDWLNGKEYKCKVSNKALPAPIEKTISKAKGQPREPMVFDLPPSREEMTKNQVSLWCMVKGFYPSDIAVEWESNGQPENNYKTTPPVLDSDGSFFLYSKLTVDKSRWQQGNVFSCSVMHEALHNHYTQKSLSLSPGK
heavy chain 11867, hole: EVQLVESGGGLVQPGGSLRLSCAASGFDFDSYAIHWVRQAPGKGLEWVAYFYPGHDYSTYADSVKGRFTISADTSKNTAYLQMNSLRAEDTAVYYCARPSPYFSWHQAMDYWGQGTLVTVSSASTKGPSVFPLAPSSKSTSGGTAALGCLVKDYFPEPVTVSWNSGALTSGVHTFPAVLQSSGLYSLSSVVTVPSSSLGTQTYICNVNHKPSNTKVDKKVEPKSCDKTHTCPPCPAPELLGGPSVFLFPPKPKDTLMISRTPEVTCVVVDVSHEDPEVKFNWYVDGVEVHNAKTKPREEQYNSTYRVVSVLTVLHQDWLNGKEYKCKVSNKALPAPIEKTISKAKGQPREPQVYTLPPIRELMTSNQVSLSCAVKGFYPSDIAVEWESNGQPENNYKTTPPVLDSDGSFFLVSKLTVDKSRWQQGNVFSCSVMHEALHNHYTQKSLSLSPGK
light chain 11867: DIQMTQSPSSLSASVGDRVTITCRASQSVSSAVAWYQQKPGKAPKLLIYSASSLYSGVPSRFSGSRSGTDFTLTISSLQPEDFATYYCQQATGSEVTFGQGTKVEIKRTVAAPSVFIFPPSDEQLKSGTASVVCLLNNFYPREAKVQWKVDNALQSGNSQESVTEQDSKDSTYSLSSTLTLSKADYEKHKVYACEVTHQGLSSPVTKSFNRGEC
As to B6, the EC50 in experiment [2] amounted to 2.5 nM; in experiment [9], 2.4 nM; in experiment [10], 6.4 nM; in [11] it was 1.2 nM; in experiment [15], 15.9 nM. Moreover, the “IC50, inhibition” value in [4] is 4.1 nM; in experiment [5], 7.5 nM; in experiment [6], 6.1 nM; in experiment [7], 3.2 nM; in experiment [8], 2.5 nM.
